Common to all, as to assay: SPR
(In SPR one partner is held on a chip, and binding of the other changes the refractive index at the surface.)

In test [1] the target is T1, Lymphotoxin-α (UniProt P01374 35-205).
T1 sequence (looked up): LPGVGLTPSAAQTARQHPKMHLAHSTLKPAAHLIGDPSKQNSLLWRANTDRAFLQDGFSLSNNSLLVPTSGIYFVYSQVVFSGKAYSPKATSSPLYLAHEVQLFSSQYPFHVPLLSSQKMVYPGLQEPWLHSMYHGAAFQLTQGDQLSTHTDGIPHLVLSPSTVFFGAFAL

Test [2] addresses T1, Lymphotoxin-α. This is another data set of the same source.
Test [3] deals with T1, Lymphotoxin-α. This is another data set of the same source.

The results in this text go back to article PMC3567247 (Biochemistry, 2012).

Where two headings read alike, the source gives them in different places.

B1: Soluble TNFR1 extracellular domain, residues 40-201 (receptor, human, UniProt P19438 40-201, looked up)
chain: RDSVCPQGKYIHPQNNSICCTKCHKGTYLYNDCPGPGQDTDCRECESGSFTASENHLRHCLSCSKCRKEMGQVEISSCTVDRDTVCGCRKNQYRHYWSENLFQCFNCSLCLNGTVHLSCQEKQNTVCTCHAGFFLRENECVSCSNCKKSLECTKLCLPQIEN
Usually Kd stands for the free concentration of one partner at which half of the binding sites on the other are occupied at equilibrium, for simple one-to-one binding. Lower therefore signals higher affinity. Usually koff stands for the first-order rate constant of dissociation. Low readings indicate a long-lived complex, high ones a short-lived complex. The kon is the second-order rate constant of association. Low values mean slower complex formation, high ones faster complex formation. In test [1], B1 came in with a Kd of 46 nM, a koff of 0.0092 s⁻¹ and a kon of 170000 M⁻¹ s⁻¹. In addition, in test [2], the dissociation constant Kd came out at 57 nM. The Kd in test [3] was determined as 50 ± 10 nM.
